Literature values in PMC6858787.

Biological target: CheY (Thermotoga maritima) (UniProt Q56312)
UniProt Q56312, sequence (Q56312 whole entry): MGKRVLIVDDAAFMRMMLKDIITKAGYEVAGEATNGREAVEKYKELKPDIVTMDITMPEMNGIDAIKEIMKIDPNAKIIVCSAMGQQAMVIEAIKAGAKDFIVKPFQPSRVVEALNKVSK

For “CheA CheY binding domain (from UniProt Q56310)”, the Kd is listed as 200 nM.
